Measured values as given in patent publication US7576101B2, “Composition for and treatment of demyelinating diseases and paralysis by administration of remyelinating agents” (Elan Pharmaceuticals, Inc., priority 2003, dated 2009).
Values belong to the molecule of their own block, whether it stands above or below them.

Assays:
[1] = target: human α4β1 integrin (human) (UniProt P13612); assay: cell-based or functional assay
[2] = target: rat α4 integrin on rat lymphocytes (rat); assay: cell-based or functional assay
[3] = test system: human lymphocyte binding to rat brain cells; conditions: cited from earlier work
VLA-4 = VLA-4 (Homo sapiens, UniProt P13612); conditions: cited from earlier work

Relative Binding to EAE Vessels (% of Control), human lymphocytes [1]: 7 % of Control | Relative Binding to EAE Vessels (% of control), U937 cells [1]: 8 % of control
Molecule: AIIB2 (antibody)

Relative Binding to EAE Vessels (% of control), U937 cells [1]: 338 % of control
Molecule: HP1/7 (antibody)

% Input Binding Jurkat, TNFα-stimulated rat brain EC clone [1]: 6 % input | % Input Binding Ramos, TNFα-stimulated rat brain EC clone [1]: 2 % input | % Input Binding U937 to VCAM-1 transfected L cells [1]: 3 % input | % inhibition of Jurkat binding to FN-coated plate [1]: 47 % inhibition | % input bound, Jurkat cells on FN-coated plate (% input bound) [1]: 42 | % input cells bound, U937 on TNFα-stimulated primary rat brain EC (% input cells bound) [1]: 13 | Binding of U937 cells to inflamed vessels in sections of EAE brain [1]: 3 | Relative Binding to EAE Vessels (% of Control), human lymphocytes [1]: 1 % of Control | Relative Binding to EAE Vessels (% of control), U937 cells [1]: 3 % of control | Relative Binding to EAE Vessels (% of control), U937 cells, tested at 25° C. [1]: 5 % of control | Relative Binding to EAE Vessels (% of Control), rat lymphocytes [2]: 18 % of Control
Molecule: HP2/1 (antibody)

Relative Binding to EAE Vessels (% of control), U937 cells [1]: 151 % of control
Molecule: P4G9 (antibody)

B1: mu MAb 21.6: mouse monoclonal antibody specific for the alpha-4 subunit of VLA-4; donor immunoglobulin for humanization (antibody, V domains shown)
VH: EVQLQQSGAELVKPGASVKLSCTASGFNIKDTYIHCVKQRPEQGLEWIGRIDPANGYTKYDPKFQGKATITADTSSNTAYLQLSSLTSEDTAVYFCAREGYYGNYGVYAMDYWGQGTSVTVSSAK
VL: DIQMTQSPSSLSASLGGKVTITCKTSQDINKYMAWYQHKPGKRPRLLIHYTSALQPGIPSRFSGSGSGRDYSFNISNLEPEDIATYYCLQYDNLWTFGGGTKLEIK
human lymphocyte binding to tissue cultures of rat brain cells stimulated with tumor necrosis factor [3]: inhibit | binding affinity for VLA-4 (VLA-4): about 10^9 M^−1
